Molecular target: recombinant IPSE/alpha-1 expressed in tobacco plants (N-terminally tagged H6F-IPSE) (Schistosoma mansoni)
Test: SDS-PAGE under reducing and non-reducing conditions; purified IPSE on a 12% Bis-Tris gel, with and without DTT, Coomassie brilliant blue staining

Substance: recombinant IPSE/alpha-1 expressed in tobacco plants (N-terminally tagged H6F-IPSE) (natural protein)
- stoichiometry N: 2

Source: PMC5550006
